Source: paper PMC12102759

B1: MBOAT1 peptide 17-32 (Lysophospholipid acyltransferase 1), 16-mer library wild type / NSP3 ADRP (ORF1ab Nsp3b ADRP, residues 1023-1192) (parent)
chain 1: STYLHPLSELLGIPLD
chain 2: not shown
B2: ICA1L peptide 451-466 (Islet cell autoantigen 1-like protein), 16-mer library wild type / NSP16 (ORF1ab Nsp16, residues 6799-7088) (parent)
chain 1: QDMSAWFNLFADLDPL
chain 2: SSQAWQPGVAMPNLYKMQRMLLEKCDLQNYGDSATLPKGIMMNVAKYTQLCQYLNTLTLAVPYNMRVIHFGAGSDKGVAPGTAVLRQWLPTGTLLVDSDLNDFVSDADSTLIGDCATVHTANKWDLIISDMYDPKTKNVTKENDSKEGFFTYICGFIQQKLALGGSVAIKITEHSWNADLYKLMGHFAWWTAFVTNVNASSSEAFLIGCNYLGKPREQIDGYVMHANYIFWRNTNPIQLSSYSLFDMSKFPLKLRGTAVMSLKEGQINDMILSLLSKGRLIIRENNRVVI

Variants of: B1
Conditions: with NSP3 ADRP (ORF1ab Nsp3b ADRP, residues 1023-1192); bait immobilised on MaxiSorp plates (10 µg), library pre-cleared on GST, 2 h binding at 4 °C, five washes; one round per day, days 1-4; value from days 2 and 3; keep out of graded; scale: average fractional NGS count over selection days 2 and 3

Variant | screen value
chain 1 L4H | 0.000101
chain 1 L4Y | 0.000191
chain 1 L4N | 0
chain 1 L4P | 7.55e-05
chain 1 L4F | 0.000245
chain 1 L4R | 0
chain 1 L4S | 0
chain 1 L4D | 0
chain 1 L4M | 8.68e-05
chain 1 L4V | 0.000192
chain 1 L4A | 1.65e-05
chain 1 P14E | 7.55e-05
chain 1 P14G | 0.000153
chain 1 P14I | 2.27e-05
chain 1 P14M | 0.00294
chain 1 P14R | 0

Variant | screen value
chain 1 P14D | 0.000131
chain 1 P14Y | 1.08e-05
chain 1 P14T | 0.000186
chain 1 P14N | 3.9e-05
chain 1 P14F | 0
chain 1 L11Y | 0.00171
chain 1 L11I | 0.000109
chain 1 L11M | 1.65e-05
chain 1 L11A | 8.96e-05
chain 1 L11N | 2.27e-05
chain 1 L11G | 7.04e-06
chain 1 L11W | 0.0297
chain 1 L11Q | 0
chain 1 L11R | 4.2e-05
chain 1 L11S | 3.31e-05
chain 1 L11H | 0

Variants of: B2
Conditions: with NSP16 (ORF1ab Nsp16, residues 6799-7088); bait immobilised on MaxiSorp plates (10 µg), library pre-cleared on GST, 2 h binding at 4 °C, five washes; one round per day, days 1-4; value from days 2 and 3; keep out of graded; scale: average fractional NGS count over selection days 2 and 3

Variant | screen value
chain 1 A11W | 0
chain 1 A11S | 2.43e-05
chain 1 A11D | 0
chain 1 A11F | 1.35e-05
chain 1 N8Q | 5.42e-05
chain 1 N8S | 2.43e-05
chain 1 N8D | 6.98e-05
chain 1 A5L | 1.55e-05
chain 1 A5H | 2.76e-05
chain 1 A5S | 3.33e-05
chain 1 A5G | 6.16e-05
chain 1 F7R | 0
chain 1 F7M | 7.76e-05
chain 1 F7V | 5.76e-05
chain 1 F7S | 3.52e-05
chain 1 D2E | 0
chain 1 W6V | 0
chain 1 W6P | 0
chain 1 D14N | 6.07e-05
chain 1 D14A | 3.47e-05
chain 1 D14F | 1.57e-05
chain 1 D14G | 1.57e-05
chain 1 D14H | 0
chain 1 D14R | 8.06e-05
chain 1 D14L | 6.11e-05
chain 1 D14S | 6.51e-05

Variant | screen value
chain 1 L16F | 2.69e-05
chain 1 L16A | 6.04e-05
chain 1 L16N | 2.43e-05
chain 1 L16S | 5.17e-05
chain 1 L16D | 3.18e-05
chain 1 L9I | 3.31e-05
chain 1 L9W | 7.05e-05
chain 1 L9A | 0
chain 1 L9T | 3.99e-05
chain 1 P15A | 1.57e-05
chain 1 P15W | 2.45e-05
chain 1 P15E | 0
chain 1 P15Y | 5.19e-05
chain 1 P15F | 0
chain 1 P15L | 3.43e-05
chain 1 M3A | 1.55e-05
chain 1 D12Q | 5.82e-05
chain 1 D12N | 1.88e-05
chain 1 D12P | 3.33e-05
chain 1 D12G | 3.31e-05
chain 1 F10R | 0
chain 1 F10H | 0
chain 1 S4M | 6.83e-05
chain 1 S4A | 0
chain 1 S4V | 0
chain 1 S4D | 6.54e-05
